Measurements from patent publication US20020037506, “Aptamer based two-site binding assay” (published 2002).

Key:
alpha-thrombin [1] = molecular target: T1, alpha-thrombin (Homo sapiens, UniProt P00734;P00734 P00734:328-363,P00734:364-622); assay: flow; reporter with DT-beads (FIG. 2 legend cites SEQ 12 but Table 1 gives SEQ 7); 50 mM Tris pH 7.5, 100 mM NaCl, 2 mM MgCl2, 37 C
alpha-thrombin [2] = molecular target: T1, alpha-thrombin; assay: flow; reporter with MC-beads, 30 nM thrombin, 37 C; values in figure only
alpha-thrombin [3] = molecular target: T1, alpha-thrombin; assay: detector in two-step sandwich on nylon membrane with immobilized DT-aptamer, room temperature, 100 uM heparin

TTTTTTGTAGTCACTGGTTGGTGAGGTTGGGTGACTAC (ssDNA) [MC-5'-LNK-F]: binds (alpha-thrombin [1]).

TTTTTGCTTAGTCCGTGGTAGGGCAGGTTGGGGTGACTAAGC (ssDNA) [DT-5'-LNK-F]: binds (alpha-thrombin [2]).

B1: MC-DIMR-F (ssDNA)
DNA: GTAGTCACTGGTTGGTGAGGTTGGGTGACTACTTTTTTCATCAGTGGGTTGGAGTGGTTGGTCACTGATG
modifications: dimer; second half is the MC sequence in reverse order, structure drawn as image only
B1: binds (alpha-thrombin [3]).
